Laboratory results published in patent US20210115135A1 (ZHEJIANG SHIMAI PHARMACEUTICAL, published 2021).

Columns and labels:
[1] = target: T1, recombinant human LAG3 (Sino Biological Inc.) (human, UniProt P18627 23-450); assay: phage panning and monoclonal phage ELISA on recombinant human LAG3
T1 construct: Bought recombinant protein; also called CD223; biotinylated recombinant human LAG3
T1 sequence (looked up): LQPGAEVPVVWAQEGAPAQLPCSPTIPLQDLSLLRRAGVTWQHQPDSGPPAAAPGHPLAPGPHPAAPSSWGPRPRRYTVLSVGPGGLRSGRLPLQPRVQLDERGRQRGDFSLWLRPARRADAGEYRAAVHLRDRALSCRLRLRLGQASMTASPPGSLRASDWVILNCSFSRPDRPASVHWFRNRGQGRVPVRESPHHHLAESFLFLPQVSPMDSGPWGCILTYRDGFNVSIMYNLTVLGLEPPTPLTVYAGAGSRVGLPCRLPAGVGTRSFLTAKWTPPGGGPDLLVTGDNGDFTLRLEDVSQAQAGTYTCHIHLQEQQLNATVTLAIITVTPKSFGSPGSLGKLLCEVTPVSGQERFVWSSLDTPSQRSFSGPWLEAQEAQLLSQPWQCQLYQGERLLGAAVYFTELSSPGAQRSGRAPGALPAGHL
Procedure: We have recently constructed a large (size, 10¹¹) phage-display naïve human Fab library with peripheral blood B cells from about 30 healthy individuals according to the previously published protocols (de Haard et al., J Biol Chem 1999, 274: 18218-18230). This library was used for selection of antibodies against recombinant human LAG3 conjugated to magnetic beads (Dynabeads M-270 epoxy; DYNAL Inc.) as described previously (Zhu et al., J Virol 2006, 80:891-899) except that we used 5, 1 and 0.1 μg of antigen in the first, second and third round of panning, respectively. Clones that bound to the antigen were identified from the third round of biopanning by using monoclonal phage ELISA as described (Zhu et al., J Virol 2006, 80:891-899).

[2] = target: T1, recombinant human LAG3 (Sino Biological …); assay: ELISA, recombinant human LAG3 coated, IgG detected by anti-human IgG (Fc-specific)-HRP
Procedure: ELISA was performed according to standard protocols. Briefly, recombinant human LAG3 (Sino Biological Inc.) was coated on Corning EIA/RIA high-binding 96-well plates (Corning Inc.) at 50 ng per well overnight at 4° C. and blocked with 3% nonfat milk in PBS (pH7.4). Fivefold serially diluted antibodies were added and incubated at room temperature for 2 h. The plates were washed with PBS containing 0.05% Tween 20. Bound Fab and IgG antibodies were detected by HRP-conjugated anti-FLAG tag antibody and HRP-conjugated anti-human IgG (Fe-specific) antibody (Sigma-Aldrich), respectively. The assay was developed at room temperature with TMB substrate (Sigma-Aldrich) and monitored at 450 nm with a microplate reader. The half-maximal binding (EC₅₀) was calculated by fitting the data to the Langmuir adsorption isotherm. DNV3 IgG1 and IgG4 were cloned into the plasmid vectors pDin1 and pDin4, respectively. They were expressed and purified from transiently transfected 293 freestyle cell cultures with a yield of […]. In ELISA, both DNV3 IgG1 and IgG4 bound to recombinant human LAG3 with an EC₅₀ of approximately 0.5 nM (FIG. 5).

[3] = target: T2, LAG3 of the Promega LAG3-MHCII Blockade Bioassay Kit (Cat. No.: CS194802) (UniProt P18627 23-525, limits assumed); assay: cell-based or functional assay
T2 sequence (looked up): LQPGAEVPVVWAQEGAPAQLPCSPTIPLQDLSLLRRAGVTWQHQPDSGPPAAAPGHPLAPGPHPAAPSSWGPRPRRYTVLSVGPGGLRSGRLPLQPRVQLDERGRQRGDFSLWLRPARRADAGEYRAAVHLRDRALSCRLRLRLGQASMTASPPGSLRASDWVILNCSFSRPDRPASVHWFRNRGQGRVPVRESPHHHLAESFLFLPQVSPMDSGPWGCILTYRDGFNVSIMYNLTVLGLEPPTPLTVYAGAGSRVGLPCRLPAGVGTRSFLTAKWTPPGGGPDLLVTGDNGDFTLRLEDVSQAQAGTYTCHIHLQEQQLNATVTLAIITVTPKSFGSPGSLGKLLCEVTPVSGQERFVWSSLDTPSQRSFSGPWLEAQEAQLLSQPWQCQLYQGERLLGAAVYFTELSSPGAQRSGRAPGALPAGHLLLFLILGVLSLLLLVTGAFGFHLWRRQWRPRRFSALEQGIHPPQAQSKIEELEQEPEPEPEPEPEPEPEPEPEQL

[4] = target: T1, recombinant human LAG3 (Sino Biological …); assay: ELISA, recombinant human LAG3 coated, Fab detected by anti-FLAG-HRP
Procedure: The hexahistidine-tagged antibodies were expressed in E. coli strain HB2151 and purified from the soluble fraction of periplasm by using the Ni-NTA resin. 7 monoclonal antibodies against human LAG3 were selected by panning a large phage-display library of naïve human antibodies in the format of antigen-binding fragment (Fab). Then ELISA was performed according to standard protocols. Briefly, recombinant human LAG3 (Sino Biological Inc.) was coated on Corning EIA/RIA high-binding 96-well plates (Corning Inc.) at 50 ng per well overnight at 4° C. and blocked with 3% nonfat milk in PBS (pH7.4). Fivefold serially diluted antibodies were added and incubated at room temperature for 2 h. The plates were washed with PBS containing 0.05% Tween 20. Bound antibodies were detected by HRP-conjugated anti-FLAG tag antibody (Sigma-Aldrich). The assay was developed at room temperature with TMB substrate (Sigma-Aldrich) and monitored at 450 nm with a microplate reader.

B1: DNV4 Fab (Fab, V domains shown)
VH: EVQLVQSGAEVKKPGSSVKVSCKASGGTFSSYAISWVRQAPGQGLEWMGGIIPIFGTANYAQKFQGRVTITADESTSTAYMELSSLRSEDTAVYYCAREKPTGGYYGMDVWGKGTLVTVSS
VL: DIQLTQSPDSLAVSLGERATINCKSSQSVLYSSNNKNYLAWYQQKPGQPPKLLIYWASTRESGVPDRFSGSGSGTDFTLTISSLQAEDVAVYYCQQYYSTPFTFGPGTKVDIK
notes: Human Fab from a phage library, hexahistidine-tagged, detected through a FLAG tag, made in E. coli HB2151
**Q.** Does B1 bind [1]?
**A.** binds

B2: DNV3 IgG4 (antibody)
heavy: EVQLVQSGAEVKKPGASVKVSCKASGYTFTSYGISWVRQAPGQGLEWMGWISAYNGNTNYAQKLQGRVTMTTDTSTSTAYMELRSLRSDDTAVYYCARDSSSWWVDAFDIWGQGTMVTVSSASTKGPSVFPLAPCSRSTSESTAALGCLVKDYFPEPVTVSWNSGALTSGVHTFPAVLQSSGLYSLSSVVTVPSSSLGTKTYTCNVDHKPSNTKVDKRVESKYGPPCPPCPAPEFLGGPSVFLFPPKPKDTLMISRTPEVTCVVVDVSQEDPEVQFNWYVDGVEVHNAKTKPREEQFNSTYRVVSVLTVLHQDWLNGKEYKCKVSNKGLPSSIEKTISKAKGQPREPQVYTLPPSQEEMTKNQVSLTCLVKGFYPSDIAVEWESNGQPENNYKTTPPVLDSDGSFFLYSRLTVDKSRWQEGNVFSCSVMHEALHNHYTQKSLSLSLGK
light: QSVLTQPPSVSAAPGQKVTISCSGSTSNIAINYVSWYQQVPGTVPKLLIYDDDKRPSGIPDRFSGSKSGTSATLDISGLQTGDEAHYYCGVWDNSLLAVLFGGGTSLTVLGQPKAAPSVTLFPPSSEELQANKATLVCLISDFYPGAVTVAWKADSSPVKAGVETTTPSKQSNNKYAASSYLSLTPEQWKSHRSYSCQVTHEGSTVEKTVAPTECS
notes: Human IgG4 made in 293FS cells; also called original DNV3 IgG4
**Q.** What does the source list for B2?
**A.** EC50 [2]: ~0.5 nM; T cell activation, EC50 [3]: 8.7 nM

B3: DNV3 IgG1 (antibody)
heavy: not shown
light: B2 light
notes: Human IgG1 made in 293FS cells
**Q.** Which EC50 [2] does the source give for B3 here?
**A.** ~0.5 nM

B4: DNV7 Fab (Fab, V domains shown)
VH: EVQLVESGAEVKKPGSSVKVSCKASGGTFSSYAISWVRQAPGQGLEWMGGIIPIFGTANYAQKFQGRVTITADKSTSTAYMELSSLRSEDTAVYYCALDGKSGFDLAFDIWGQGTMVTVSS
VL: DIQLTQSPSSLSASVGDRVTITCRASRRISSYLNWYQQKQGKAPQLLIYAASSLQSGVPSRFSGSGSGTEFTLTISSLQPEDFATYYCQQFNSYPLTFGGGTKVEIK
notes: as for B1
**Q.** Does B4 bind [1]?
**A.** binds

B5: DNV5 Fab (Fab, V domains shown)
VH: QVQLVQSGAEVKKPGASVKVSCKASGGTFSSYAISWVRQAPGQGLEWMGGIIPIFGTANYAQKFQGRVTITADESTSTAYMELSSLRSEDTAVYYCARASPPAAYYYYYGMDVWGQGTTVTVSS
VL: DIQMTQSPSSLSASVGDRVTITCQASQDISNYLNWYQQKPGKAPKLLIYAASILQSGVPSRFSGSGSGTDFTLTISSLQPEDFATYYCQQSHSYSETFGQGTKVEIK
notes: as for B1
**Q.** Which EC50 [4] does the source give for B5 here?
**A.** ≤ 10 nM

B6: DNV6 Fab (Fab, V domains shown)
VH: EVQLVQSGAEVKKPGESLKISCKGSGYSFTSYWIGWVRQMPGKGLEWMGIIYPGDSDTRYSPSFQGQVTISADKSISTAYLQWSSLKASDTAMYYCASGAPGYYYDSSGYYAFDIWGQGTMVTVSS
VL: QSVVTQPPSVSGAPGQRVTVSCTGSSSNIGADFDVHWYQQLPGTAPKLLIYGNTNRPSGVPDRFSGSKSGTSASLAITGLQAEDEADYYCQSYDNSLSGVVFGGGTKVTVL
notes: as for B1
**Q.** B6 was tested. Which EC50 [4] did it give?
**A.** ≤ 10 nM

B7: DNV2 Fab (Fab, V domains shown)
VH: EVQLVQSGAEVKKPGASVKVSCKASGGTFSSYTISWVRQAPGQGLEWMGGIIPIFGTANYAQKFQGRVTITADKSTSTAYMELSSLRSEDTAVYYCARDPVFDYWGQGTLVTVSS
VL: DIQLTQSPSSLSASVGDRVTITCRASQNIGTYLNWYQQKPGKAPKLLIYAASSLQSGVPSRFSGSGSGTDFTLTISSLQPEDFATYYCQQLNSYPITFGQGTRLEIK
notes: as for B1
**Q.** Does B7 bind [1]?
**A.** binds
